# According to the DeepSol protein solubility set:
# Assay: soluble on expression in E. coli; label from the status in PepcDB or PDB records
row,Sequence,soluble on expression in E. coli
1,MYNSKQFLRTVNWHFVNSCNMSCKYCFVSCCKELPLEESISVLEKLKGHFDRINFVGGEPTVSSKLIPLVKKAKEYGFIVSMVTNGFNLYHKPETFDEILTDFSIIGISIDSLNENTNVLIGRSVKNSVLSRDDYIDLCKKIKLAGCKLKINTVVSRVNLDENFNDFYETVMPDRIKLLQVLRPAGRLKQDYTDFLIEEDDYLEFVQRHHKFSEVICSENNELMLNSYYILNSDACFLDNKSGCISGSLLENDLKSVLKNVYVDENKYRARYA,not soluble
2,MYPYIKLIATLFRAKNSPQMNLDEKSVLNCRAGLTDIDVFVELNNARHLTYMEFGRWDFAQRTGLLSLMRKNKWAFAVGGASVRYRRRIAFWKKFTVTTQVICHDGRWFYFLQETHIKDKVCSSALIKAAFTSKQGLVPATEVLAAYGKTTPNFDVPDWVNAWIDAESQRPWPLEHHHHHH,soluble
3,MYQLSRTQILPVPLTVAWDFFSDPRNLAAITPPDMGFVITSPVPERTHAGMVVTYAVSPFGGLRLPWVTEITHCAEPSLFVDEQRFGPYRFWHHQHHFLEVSGGVEMRDIVHYILPFGIIGRLSAPVVAKRLKAIFDYRRDTLAVRFAALSRGALEHHHHHH,not soluble
4,MYSGVQIRTGSNPKIRRNKIWGGQNGGILVYNSGLGCIEDNEIFDNAMAGVWIKTDSNPTLRRNKIHDGRDGGICIFNGGRGLLEENDIFRNAQAGVLISTNSHPILRKNRIFDGFAAGIEITNHATATLEGNQIFNNRFGGLFLASGVNVTMKDNKIMNNQDAIEKAVSRGQCLYKISSYTSYPMHDFYRCHTCNTTDRNAICVNCIKKCHQGHDVEFIRHDRFFCDCGAGTLSNPCTLAGEPTHDTDTLYDSAPPIESNTLQHN,soluble
5,MYSPESMNSNISSPSPPSSSSLNAPSLADAPEVRSDDGEAETSEPSTSVTAVPMEIVSQASTSAPVNQLLASGIDMSSVIKNNAVLQALLASASAGGFGDNAGLTMSKLLTAALANGSTAVAKRDAGSPRTDIPKKTRLKVFSNGFFMTFDKLSSCQKKYFWRCEYKNTCKARMHTDIVTEKILTFIHEHNHSAPIDEEVRLYGLDPTNIERNRVYIVGNVADPNQRRKIRKQVADREAAAKRLVQQQEEEQQKQQSASSIVAARAAYAQAMQNGSIPTSSGVASFLQSTSATAPMTSHSMLLAQMPFLNNIKTEMSNMVKNEQFTPERYTQHMSPNLPLQTATIAPLIIPTENYDSPSYRQPAIKRKATDLTNEEHDLRRDPMFQPTFELARKLRKLWKGEPNRYPRTTTTPTHHFEFFLSKNDGTDEHLYVPMRINLRDEAHLKEALQDFCGQQCIGMLLFGISPKISVMFNQPMLNNWDNNQFFLLDISNPSRWRLMYVDDQAV,not soluble
6,MYVCHFENCGKAFKKHNQLKVHQFSHTQQLPYECPHEGCDKRFSLPSRLKRHEKVHAGYPCKKDDSCSFVGKTWTLYLKHVAECHQD,soluble
7,MYVMTQSGWLEVICGCMFSGKSEELIRRVRLAQFAKQEVKVFKPTIDNRYSEDAVVSHNGNSVIAIPVATPAEMFRYISAATDVVAIDEVQFFSDDIIDVVQTLADGGCRVITAGLDQDFRGEPFGPVPALMAIAESVTKLQAVCTVCGSPASRTQRLINGAPASYDDPVILVGASEAYEPRCRHHHEVPGKPKKRYNRPLAGHTGE,not soluble
8,MYYYVNEHEKALADFDKVIELNPKEDKTYYWKGLVYEYLKQYESSLVYLNKAIQLNDKNYKYYELRSLVYKQLREYDKAYSDVNVAIKLNQNNGILYSLRGLLNKYLNKYNDAIIDYNKSIELMPEFIAPYKSLLSIYLQTQNYEAGLEVANKAINIEQSWILYSTRGYLFLMLQSYNEAISDSNRAIKLNSGFADSYLTRGKAYLALKEYKKAIEDFDRAIELDSDNIDKVKQEAYEALAEMGEK,not soluble
9,NEIKKILIMPTWRDWLNSTYAFDNSDYMKHYLSLINSPKLQALINEYDIEINFYPHYRSQMFFKSFLTDNKSDINYIELGDKTVQELLVEHDLLITDYSSVSFDFSYMKKPVIFYHFDVKKFFRKGILRSIKDTFIGDIAHTEKELISLIEDNIKNPKNMEYQNLSSIFDYTDHHNNQRVYHSILDLIQDNT,not soluble
10,NFMLTQPHSVSESPGKTVTISCTRSSGSIASYYVQWYQQRPGSSPTTVIYEDSQRPSGVPDRFSGSIDSSSNSASLTISGLKTEDEADYYCQSYDSSNVVFGGGTKLTVLGQPKAAPSVTLFPPSSEELQANKATLVCLISDFYPGAVTVAWKADSSPVKAGVETTTPSKQSNNKYAASSYLSLTPEQWKSHRSYSCQVTHEGSTVEKTVAPTECS,soluble
11,NGEEHEQTHRAIFRFVPRHEDELELEVDDPLLVELQAEDYWYEAYNMRTGARGVFPAYYAIEVTKEPEHMA,soluble
12,NGFDVREGRKLLVGGGSGIVSLYPIADQETDALISAKTRDELIFKDRFPESRRFIATDDGSDGFHGFAHELLQRINIDSYEAIYVCGPEQMMYKVLQVLKGRKVFVQFS,not soluble
13,NIPEIENANLKPALKDSVLPDGFYSTTNHPTHVKVNDEWIEVANPKMDAVIVVYPEEKRAETKVIRKVKKGDFVLIGHNGIRVMPPEKSREAGQLFEFMNSEVSSEKPKEAIIKRIAKEMHEIREEYKKTGTGGIAIVGGPAIIHTGGGPALAKMVELGYIQAILAGNALATHDIESALYGTSLGVNIKTAKPVTGGHKHHIYAINAINDAGNIKNAVESGVLKEGIMYQCIKNNIPYVLAGSIRDDGPIPDVITDSMVAQDKMRTTVMDKKMVIMLSTLLHSVATGNLMPSYIKTVCVDIQPSTVTKLMDRGTSQAIGVVTDVGVFLVLLLKELER,not soluble
14,NKDFWIKGMGNFTLAKGRYEVYEEPDYASYGQGYRSRIGQPINFNYGYIAERLFIDENDVANSPSQTSFNGGAMPGDIKYKDLNNDGKITSEDQIFLGYPNQPEITYGFGFSTGYKGFDLSMFFQGNARVSFFIDPRNTSPFVNYDAGGKTGVQQCLDVIAKDHWSEDNRNIYAFWPRLSPTLVENNMQTSTWWMHDGSFIRLKTVELGYTFSQKALKKIGVQSLRLYLTGSNLLTFSKFKLWDAEMGNNGLGYPIQRVYNLGININF,not soluble
15,NKVNDESVEYFGQRNEFRQASDFMEERISGMTNISIAIKTNESQGIAAPDFLNTIGEFSSWLRDQPETDHVATLADVYKRLNKNMHGDDEAYYLLPQERELAAQYLLLYEMSLPYGLDLNNQINVDKSSIKMVLTVANLGSVELVDLENRIYQWFAEHAPQYQVVASSPSLMFAHIGETN,not soluble
16,NRANPDPNCCLGVFGLSLYTTERDLREVFSKYGPIADVSIVYDQQSRRSRGFAFVYFENVDDAKEAKERANGMELDGRRIRV,soluble
17,NSLTTHYRRSQLIALPVPGGKAKVEYCYAVNVPGDREIVTHSFAEWAVGDFNRQKETVLCDKLTAGSKITTECPSESFVGSRKHNGLSTSAKVMSMNASARSNSFVVNSGK,not soluble
18,NSNNKRAPYWTNTEKMEKRLHAVPAANTVKFRCPAGGNPMPTMRWLKNGKEFKQEHRIGGYKVRNQHWSLIMESVVPSDKGNYTCVVENEYGSINHTYHLDVVERSPHRPILQAGLPANASTVVGGDVEFVCKVYSDAQPHIQWIKHVEKNGSKYGPDGLPYLKVLKAAGVNTTDKEIEVLYIRNVTFEDAGEYTCLAGNSIGISFHSAWLTVLPAPGRE,soluble
19,NTEEKFVRAEEKAKRSKMLIDMKSEQYNMITEKIEKTRKSRHDIHHHINVVYQLAKENKIEQLIEYLEEYNKIYSTKEPMVYCNNSTVDAILNHYILLAKDNGIEVHLNVALPEELKIRDTDLCIVIGNLLENAIEASEKEENKRIKLRINRSNEYICMLVSNLYNGEIKKGHSGYYSRKREFKDTGIGLSSVSAVVEKYDGRMEVDHTNGEFNVFIMMANISSNLT,not soluble
20,NTKDEAYNVATQATYAVAEQQTGSGDVVAVDDNVQMSKVSTVTINVLGNDIIADGVSVEISAMSAPSKGTVKLLSDGSIQYTPAKRFKNQDSFS,not soluble
